Reference: article doi:10.64898/2025.12.17.694870 (bioRxiv, 2025)
Positions count from the first letter of the chain named. Where no end group is shown, it is not given here.

Experiments:
[1] = target: T1, Homer1 EVH1 domain (1-118) S97L (Mus musculus, UniProt Q9Z2Y3 1-118, S97L); test: NMR titration
T1 sequence (looked up): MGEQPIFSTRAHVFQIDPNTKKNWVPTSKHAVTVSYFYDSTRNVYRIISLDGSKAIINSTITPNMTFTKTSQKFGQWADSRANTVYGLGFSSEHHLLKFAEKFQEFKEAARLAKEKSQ

[2] = target: T2, Homer1 EVH1 domain (1-118) M65I (Mus musculus, UniProt Q9Z2Y3 1-118, M65I); test: NMR titration
T2 sequence (looked up): T1 sequence (looked up) with M65I, L97S

[3] = target: T3, wild-type Homer1 EVH1 domain (1-118) (Mus musculus, UniProt Q9Z2Y3 1-118); test: NMR titration
T3 sequence (looked up): T1 sequence (looked up) with L97S

[4] = target: T1, Homer1 EVH1 domain (1-118) S97L; test: BLI
[5] = target: T2, Homer1 EVH1 domain (1-118) M65I; test: BLI
[6] = target: T3, wild-type Homer1 EVH1 domain (1-118); test: BLI

Measured: binding result

B1: short Shank3 peptide LVPPPEEFANG (peptide)
peptide: LVPPPEEFANG
binds: [1] | [2] | [3]

B2: biotinylated Shank3 peptide ligand LVPPPEEFANG (peptide)
peptide: LVPPPEEFANG
modifications: also: biotinylated, site not given here
binds: [4] | [5] | [6]
